Values joined by “and” are separate entries in the source; they are usually repeats but may differ in a detail not shown here. Equal values may be shown once.

Data on 2 substances can be found in paper PMC4372114.

For this experiment, the target named is Recombinant human vascular endothelial growth factor receptor (VEGFR) (human) (UniProt P35968). The experiment can be described thus: SPR. For orientation: In SPR one partner is held on a chip, and binding of the other changes the refractive index at the surface.
UniProt P35968, sequence (P35968 20-764): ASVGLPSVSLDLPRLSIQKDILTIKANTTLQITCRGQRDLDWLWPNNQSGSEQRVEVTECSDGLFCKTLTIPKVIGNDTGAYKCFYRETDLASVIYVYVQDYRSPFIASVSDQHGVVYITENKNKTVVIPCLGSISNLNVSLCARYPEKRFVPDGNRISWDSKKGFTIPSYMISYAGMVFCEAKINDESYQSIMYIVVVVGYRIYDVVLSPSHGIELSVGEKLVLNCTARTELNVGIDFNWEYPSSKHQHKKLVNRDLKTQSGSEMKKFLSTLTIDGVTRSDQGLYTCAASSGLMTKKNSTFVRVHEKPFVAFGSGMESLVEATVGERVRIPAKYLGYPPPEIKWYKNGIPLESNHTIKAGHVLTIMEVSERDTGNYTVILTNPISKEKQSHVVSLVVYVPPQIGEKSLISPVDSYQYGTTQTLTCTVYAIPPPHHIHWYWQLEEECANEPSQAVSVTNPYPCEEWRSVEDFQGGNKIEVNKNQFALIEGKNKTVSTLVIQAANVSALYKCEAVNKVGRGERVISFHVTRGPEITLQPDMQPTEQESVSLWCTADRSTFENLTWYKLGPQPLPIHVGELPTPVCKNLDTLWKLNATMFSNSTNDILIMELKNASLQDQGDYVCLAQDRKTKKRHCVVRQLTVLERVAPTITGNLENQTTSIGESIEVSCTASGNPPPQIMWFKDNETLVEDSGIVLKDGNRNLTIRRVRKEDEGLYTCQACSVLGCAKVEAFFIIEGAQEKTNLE

One may read the kon as the rate constant with which the complex forms. Take “Recombinant human vascular endothelial growth factor (VEGF) (from UniProt P15692 1-395) (ligand)”: the SPR baseline shift was 60.2 mDeg and 69.3 mDeg and 57.4 mDeg; the on-rate constant (kon) is 83000 M⁻¹ s⁻¹ and 91000 M⁻¹ s⁻¹ and 82000 M⁻¹ s⁻¹.
Take “VEGF released from living SKOV-3 cells (from UniProt P15692 1-395) (ligand)”: the SPR baseline shift is 104 mDeg and 106 mDeg and 113 mDeg.
